# In article PMC8390522, “The phototroph-specific β-hairpin structure of the γ subunit of FoF1-ATP synthase is important for efficient ATP synthesis of cyanobacteria” (The Journal of Biological Chemistry, 2021):
# B1: c subunit of FoF1 ATP synthase of Synechocystis sp. PCC 6803 (natural protein, Synechocystis sp. PCC 6803 (endogenous), UniProt P27182 1-81, looked up)
# chain: MDSTVAAASVIAAALAVGLGAIGPGIGQGNASGQAVSGIARQPEAEGKIRGTLLLTLAFMESLTIYGLVIALVLLFANPFA
# notes: ATP synthase c subunit, Synechocystis sp; Forms the c-ring; also called ssl2615; c-ring; source: endogenous, Synechocystis sp
# Target: the molecule itself
# Assay: SDS-PAGE with immunoblot (oligomer resistant to SDS); purified FoF1 on 16% polyacrylamide gels, immunoblot with anti-c-subunit antibodies; the c subunit runs as a ring above the α subunit
protein,measurement,value
B1,binding result,binds
